The record followed here is patent US8119354B2, “Cell-free assay product and method of use thereof for measuring activity of frizzled receptors” (Universitaet Konstanz, priority 2007, dated 2012).

One data set has as its target T1, hFz1 (Homo sapiens, UniProt Q9UP38).
T1 construct: made in house; host or cells: Escherichia coli (pMAL-p2), membrane fraction
The experiment in a line: Europium-GTP assay of G protein (Go) activation by hFz1 membranes. Type of data set: biochemical. Particulars: for relative stimulation among the Wnt ligands tested: detergent-solubilized hFz1, GTP incorporation into Go; for activation of the trimeric Go protein (GTP incorporation into Go): detergent-solubilized hFz1-expressing membrane fractions, not control membranes. The protocol: The coding sequence of hFz1 was cloned in-frame into the pMAL-p2 plasmid (New England BioLabs) allowing expression of the protein as an N-terminal fusion with maltose binding protein (MBP). The natural signal sequence of MBP directs the fusion protein through the cytoplasmic membrane. Expression conditions were optimized to allow slow expression to maximize correct hFz1 folding: Expression was performed at 18° C. for 18 h, and in the presence of glucose to minimize the expression of endogenous MBP protein.
Bacteria were harvested by centrifugation, resuspended in PBS (phosphate-buffered saline) and disrupted by French press. The resultant suspension was cleared from the cell debris by low-speed centrifugation, followed by ultracentrifugation to pellet the membranes expressing MBP-hFz1. The membranes were resuspended in PBS supplemented with the protease-inhibitor cocktail (Roche) and frozen in aliquots at −80° C. Control bacteria were transformed with the empty pMAL-p2 vector, induced with IPTG, grown and harvested in parallel with hFz1-transformed bacteria.
HFz1 coding sequence was subcloned into pIRES2-DsRed-Express plasmid (Invitrogen). CHO cells were transiently transfected with lipofectamine following manufacturer's protocol. Transfection efficiency was estimated to be >50%. Two days post-transfection, transfected cells in parallel with control non-transfected cells of a similar cell density were washed, detached with EDTA, pelleted, washed with PBS, and disrupted in a glass-rod homogenizer in a hypotonic buffer (10 mM Hepes pH 7.5). Membrane fraction was prepared and stored as above.
Europium-GTP assay of G protein activation using a time-resolved fluorescence assay was performed. In one well of a 96-well AcroWell plate, 100 μl were mixed containing 4-10 μg/ml membrane protein from the hFz1 expression in bacteria or in CHO, 50 mM Hepes, pH 7.4, 1 mM MgCl2, 50 mM NaCl and 1 mg/ml saponin. Bacterial membranes expressing hFz1 or bacterial control membranes were used at 0.1 mg/ml protein concentration for membrane protein preparation. CHO membranes expressing hFz1 or CHO control membranes were used at 0.01 mg/ml protein concentration. Varying amounts of the following were added: bovine brain Go (Calbiochem), Wnt3a (R&Dsystems), Wnt3a-conditioned or control L-cell medium. Extra GDP was omitted in most experiments. 30 min after incubating this mixture at room temperature on a shaker (100 rpm), Europium-GTP was added, and incubation was continued for 30 more min. Afterwards the content of the wells was filtered and washed using the Multiscreen Vacuum Manifold (Millipore). Amounts of Europium-GTP retained by the membranes were then measured using the Perkin Elmer Victor3 Multilabel Plate Reader.

The nature of data set [1]: Solubility of purified Wnt3A after heparin chromatography. Type of data set: physicochemical. To be noted: 1×PBS, 1M NaCl, 1% CHAPS, pH7.3. The protocol: To purify Wnt protein as an example for a typical Fz ligand LWnt3A or LWnt5A cell lines producing and secreting Wnt proteins were used. By growing the cells adherent for 4 days from a 1:10 to 1:20 split high amounts of Wnt-3A were obtained. The medium was DMEM plus 10% FBS, omitting the serum lowers the levels of Wnt protein in the medium. The Wnt containing medium was filtered, detergent was added (Triton X-100 or CHAPS) to a final concentration of 1%, and the medium was refiltered just before applying the material to Blue Sepharose.
Purification by Blue Sepharose fractionation yielded pure Wnt protein, wherein Wnt3A conditioned medium was applied on a Blue Sepharose HP column. Wnt elution from Blue Sepharose was done in a single step from 150 mM to 1.5 M KCl. Approximately, half of the Wnt protein eluted immediately with the salt and the majority of contaminants, but the other half was retained and eluted later in a second pool. This second pool contained much less total protein and consequently contained a higher proportion of Wnt.
Pooled eluted Wnt fractions from Blue Sepharose purification were concentrated by […] to 5 or 10 ml volume using Centricon or Amicon Ultra 30 ultrafiltration device (Amicon) depending on size of […] column. […]

A further data set deals with T2, hFz6 (Homo sapiens, UniProt O60353).
T2 construct: made in house
The data set can be described thus: in vitro Go activation assay with bacterially expressed hFz6. The class given is biochemical. Particulars: detergent-solubilized bacterially expressed hFz6. The source says:
(§1) The results obtained with three human Frizzled receptors (hFz1, hFz6, hFz7) and four Wnt ligands (Wnt3a, Wnt5a, Wnt5b, and Wnt7a) allow to compose a table of pair-wise Wnt-Frizzled activations using Go stimulation as the read-out (FIG. 5C).
(§2) Detergent-solubilized hFz6 and Fz7 stimulated GTP incorporation into Go in the presence of different Wnt ligands. Data are presented in FIG. 5C as summary of the capacity of the tested Wnt ligands to stimulate the tested Frizzled receptors to activate Go in vitro. […] Go activation by the Wnt-Frizzled pairs is denoted (in the order of the decreasing activation capacity) as “+++”, “++”, “+”, “+/−”, and “−” using as criteria the lowest Go-activating Wnt concentration as well as the maximal Go activation level achieved by any Wnt concentration.
(§3) Europium-GTP assay of G protein activation using a time-resolved fluorescence assay was performed. In one well of a 96-well AcroWell plate, 100 μl were mixed containing 4-10 μg/ml membrane protein from the hFz1 expression in bacteria or in CHO, 50 mM Hepes, pH 7.4, 1 mM MgCl2, 50 mM NaCl and 1 mg/ml saponin. Bacterial membranes expressing hFz1 or bacterial control membranes were used at 0.1 mg/ml protein concentration for membrane protein preparation. […] Amounts of Europium-GTP retained by the membranes were then measured using the Perkin Elmer Victor3 Multilabel Plate Reader.

The next data set has as its target T3, hFz7 (Homo sapiens, UniProt O75084).
T3 construct: made in house
The data set can be described thus: in vitro Go activation assay with bacterially expressed hFz7. Type of data set: biochemical. Particulars: detergent-solubilized bacterially expressed hFz7.
Excerpt: as §1, §2, §3

T1 sequence (Q9UP38 70-647): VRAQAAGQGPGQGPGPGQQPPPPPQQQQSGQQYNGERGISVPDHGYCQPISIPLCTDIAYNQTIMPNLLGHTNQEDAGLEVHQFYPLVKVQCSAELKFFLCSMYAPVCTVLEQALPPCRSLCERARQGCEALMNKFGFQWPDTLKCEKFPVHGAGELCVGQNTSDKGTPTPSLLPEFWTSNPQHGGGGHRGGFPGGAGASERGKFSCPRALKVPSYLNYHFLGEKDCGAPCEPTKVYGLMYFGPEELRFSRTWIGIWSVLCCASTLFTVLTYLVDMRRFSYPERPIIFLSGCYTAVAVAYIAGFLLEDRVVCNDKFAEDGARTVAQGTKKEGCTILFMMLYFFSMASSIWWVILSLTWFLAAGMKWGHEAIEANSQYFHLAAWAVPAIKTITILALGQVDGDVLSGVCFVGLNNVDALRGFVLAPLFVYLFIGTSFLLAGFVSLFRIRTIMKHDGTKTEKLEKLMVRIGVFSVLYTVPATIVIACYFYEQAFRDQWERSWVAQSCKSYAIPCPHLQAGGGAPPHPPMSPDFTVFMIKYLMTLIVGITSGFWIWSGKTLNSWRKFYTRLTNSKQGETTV

Consider Wnt3a, for which the “stimulation of hFz1 activity towards Go” value at hFz1 (E. coli-produced hFZ1 membranes, 0.3 μg/ml purified Wnt3a) is reported as “stimulated”. Further, the “relative stimulation among the Wnt ligands tested” value on hFz1 is “most active”. In addition, in data set [1], the “solubility and activity maintained at a maximum concentration” value was not above 100 µg/mL.
On to fMDGCEL [reference compound], for which, at hFz1 (E. coli produced hFz1 membranes, Wnt5a mimetic peptide), the “stimulation of hFz1 activity towards Go” value is “can be stimulated”.

B1: Wnt7a: Wnt ligand (secreted Wnt family protein), frizzled receptor agonist (protein, UniProt O00755 32-349, looked up)
Protein Wnt-7a: LGASIICNKIPGLAPRQRAICQSRPDAIIVIGEGSQMGLDECQFQFRNGRWNCSALGERTVFGKELKVGSREAAFTYAIIAAGVAHAITAACTQGNLSDCGCDKEKQGQYHRDEGWKWGGCSADIRYGIGFAKVFVDAREIKQNARTLMNLHNNEAGRKILEENMKLECKCHGVSGSCTTKTCWTTLPQFRELGYVLKDKYNEAVHVEPVRASRNKRPTFLKIKKPLSYRKPMDTDLVYIEKSPNYCEEDPVTGSVGTQGRACNKTAPQASGCDLMCCGRGYNTHQYARVWQCNCKFHWCCYVKCNTCSERTEMYTCK
As for B1, in the data set with hFz1, the “activation of the trimeric Go protein (GTP incorporation into Go)” value (from here on “activation of the trimeric Go protein”) was “concentration-dependent activation” and the “relative stimulation among the Wnt ligands tested” value is listed as “more modest stimulation”. Also, in the data set with hFz6, the “Go activation by hFz6 upon addition of ligand” value is “activated Go”.

B2: Wnt5b: Wnt ligand (secreted Wnt family protein), frizzled receptor agonist (protein, UniProt Q9H1J7 18-359, looked up)
Protein Wnt-5b: QLLTDANSWWSLALNPVQRPEMFIIGAQPVCSQLPGLSPGQRKLCQLYQEHMAYIGEGAKTGIKECQHQFRQRRWNCSTADNASVFGRVMQIGSRETAFTHAVSAAGVVNAISRACREGELSTCGCSRTARPKDLPRDWLWGGCGDNVEYGYRFAKEFVDAREREKNFAKGSEEQGRVLMNLQNNEAGRRAVYKMADVACKCHGVSGSCSLKTCWLQLAEFRKVGDRLKEKYDSAAAMRVTRKGRLELVNSRFTQPTPEDLVYVDPSPDYCLRNESTGSLGTQGRLCNKTSEGMDGCELMCCGRGYNQFKSVQVERCHCKFHWCCFVRCKKCTEIVDQYICK
Regarding B2, in the data set with hFz1, the “activation of the trimeric Go protein” value is on record as “concentration-dependent activation” and the “relative stimulation among the Wnt ligands tested” value is listed as “more modest stimulation”.

B3: Wnt5a: Wnt ligand (secreted Wnt family protein), frizzled receptor agonist (protein, UniProt P41221 62-380, looked up)
Protein Wnt-5a: IIGAQPLCSQLAGLSQGQKKLCHLYQDHMQYIGEGAKTGIKECQYQFRHRRWNCSTVDNTSVFGRVMQIGSRETAFTYAVSAAGVVNAMSRACREGELSTCGCSRAARPKDLPRDWLWGGCGDNIDYGYRFAKEFVDARERERIHAKGSYESARILMNLHNNEAGRRTVYNLADVACKCHGVSGSCSLKTCWLQLADFRKVGDALKEKYDSAAAMRLNSRGKLVQVNSRFNSPTTQDLVYIDPSPDYCVRNESTGSLGTQGRLCNKTSEGMDGCELMCCGRGYDQFKTVQTERCHCKFHWCCYVKCKKCTEIVDQFVCK
With B3, in the data set with hFz1, the “activation of the trimeric Go protein” value is “concentration-dependent activation” and the “relative stimulation among the Wnt ligands tested” value is on record as “most active”. Moreover, the “Go activation by hFz7 upon addition of ligand” value in the data set with hFz7 is listed as “mostly stimulated”.
